Patent US20180333477A1

Target: RSV line 19 F protein with I557V, as expressed by vaccine candidate OE4 (respiratory syncytial virus strain line 19) (UniProt P12568)
Assay: MPE8 binding to virus stocks kept at 4 C over 8 days

With Pre-F-specific mAb MPE8 (antibody) the pre-F antigen level (MPE8 binding) relative to A2 was > 2 fold.
